Measurements from patent publication US20040123344A1, “Novel gene encoding an f-box protein which regulates leaf longevity in arabidopsis thaliana and mutant gene thereof” (priority 2000, published 2004).

How the values were obtained:
[1] = target: T1, ASK2(1-172) (Arabidopsis thaliana, UniProt Q9FHW7); test: Yeast two-hybrid assay with ASK2; format: cell-based; details: HF7c yeast
T1 construct: the plasmid pGAD424-ASK2(1-172)[4] was constructed by inserting a BamHI/PstI fragment of pGTE-ASK2(1-172) into pGAD424; expressed in transfected cells; host or cells: Saccharomyces cerevisiae HF7c
T1 sequence (Q9FHW7 1-171): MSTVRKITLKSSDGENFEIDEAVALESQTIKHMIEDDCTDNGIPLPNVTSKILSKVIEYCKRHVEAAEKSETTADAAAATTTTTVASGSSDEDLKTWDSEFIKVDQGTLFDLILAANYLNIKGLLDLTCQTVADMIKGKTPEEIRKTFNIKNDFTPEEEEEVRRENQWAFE
Excerpt: As expression vectors of expressing GAL4 DNA binding domain (GAL4-BD) and ORE9 fusion protein, plasmids pGBT9-ORE9 (1-49) and pGBT9-ORE9 (50-693) were constructed. The plasmid pGBT9-ORE9 expresses a fragment of ORE9 containing N-terminal 1-49th amino acids corresponding to an F-box region of ORE9, and the plasmid pGBT9-ORE9 (50-693) expresses a fragment of ORE9 containing 50-693th amino acids from which the F-box region was removed.
First, the gene encoding the ORE9 (1-49) fragment was amplified by PCR using a primer represented by SEQ ID NO: 10 and SEQ ID NO: 11, and then inserted into BamHI and PstI restriction enzyme sites of pGBT9 (Clontech, USA) containing a 4-BD gene and a tryptophan auxotrophic selection marker gene (TRP1), thereby constructing the plasmid pGBT9-ORE9 (1-49). Similarly, the plasmid pGBT 9-ORE9 (50-693) was constructed, which expresses an ORE9 (50-693) fragment and a GAL4-BD fusion protein. In this case, oligonucletides represented by SEQ ID NO: 12 and SEQ ID NO: 13 were used as PCR primers to amplify the gene encoding the ORE9 (50-693) fragment. […]

[2] = target: T2, GST-ASK1 fusion protein (Arabidopsis thaliana, UniProt Q39255); test: In vitro binding assay with GST-ASK1 fusion protein; details: 35S-labeled in vitro translation product; glutathione beads; GST as negative control
T2 construct: made in house; host or cells: Escherichia coli BL21(DE3) pLysS
T2 sequence (Q39255 1-160): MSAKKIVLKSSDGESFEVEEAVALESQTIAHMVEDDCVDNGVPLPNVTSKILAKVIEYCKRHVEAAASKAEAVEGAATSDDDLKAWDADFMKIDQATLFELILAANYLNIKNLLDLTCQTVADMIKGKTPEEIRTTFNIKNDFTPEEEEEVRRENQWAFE
Excerpt: In order to examine that ORE9 protein or derivatives thereof directly bind with ASK1, a GST-ASK1 fusion protein and a ^35S-labeled ORE9 protein produced by in vitro translation were subjected to in vitro binding assay. To obtain a glutathione S-transferase (GST) protein and a GST-ASK1 fusion protein, a vector pGEX (APBiotech, Co.) and a vector pGEX-ASK1 were constructed, which express the above proteins, respectively. Artificial sequences represented by SEQ ID NO: 14 and SEQ ID NO: 15 were used as PCR primers to amplify a gene encoding the ASK1 fragment. The resulting PCR product was digested with EcoRI and NcoI restriction enzymes, and inserted into the restriction enzyme sites of the pGEX vector. Escherichia coli BL21(DE3) pLysS was transformed with the resulting two vectors, and GST and GST-ASK1 fusion proteins were expressed. The GST and GST-ASK1 fusion proteins were purified by chromatography with glutathione-Sepharose 4B beads. The purified proteins was subjected to electrophoresis with SDS-polyacryamide gets, dyed with Coomassie blue, and measured for their amount. GST and GST-ASK1 fusion proteins of the same amount were added to glutathione beads, which had been previously washed with 10-fold volume of B buffer (20 mM […], pH 7.6, 150 mM sodium chloride, 10% glycerol, 0.5% NP-40, 1 mM DTT) three times. Then, the resulting proteins were adsorbed 4° C. for one hour using a rotating mixer. The provided beads were washed with 1 ml B buffer three times, and then stored in a state where the ratio of slurries relative to B buffer is 50%.
Meanwhile, a radioactivity-labeled ORE9 (1-693), the mutant type ore9 and ORE9 derivatives (1-327 and 50-693) were prepared using the in vitro transcription/translation system (Promega, USA) and [^35S]-methionine (DuPont NEN, USA). The proteins were quantitatively analyzed with SDS-PAGE and BAS radioanalytic imaging system (Japan). Then, the respective ^35S-labeled translation products of the same amount were mixed with 60 μl GST-adsorbed beads or GST-ASK1 fusion protein-absorbed beads, contained in 1 ml GB buffer (final concentration: 20 mM Tris-HCl, pH 7.5, 0.15% NP-40, 150 mM NaCl, 1 mM EDTA). The resulting beads were cultured in a rotating mixer at 4° C. for two hours, and then washed with 1 ml GB buffer four times. The washed beads were added with 30 μl of 2×SDS sample solutions, boiled for three minutes and then isolated with SDS-PAGE. The resulting gels were dried to dryness, and then exposed to X-ray film.

B1: ore9: mutant protein with early translation termination, 8 LRRs, SEQ ID NO: 3 (protein, listed as Arabidopsis thaliana)
chain: MASTTLSDLPDVILSTISSLVSDSRARNSLSLVSHKFLALERSTRSHLTIRGNARDLSLVPDCFRSISHLDLSFLSPWGHTLLASLPIDHQNLLALRLKFCFPFVESLNVYTRSPSSLELLLPQWPRIRHIKLLRWHQRASQIPTGGDFVPIFEHCGGFLESLDLSNFYHWTEDLPPVLLRYADVAARLTRLDLLTASFTEGYKSSEIVSITKSCPNLKTFRVACTFDPRYFEFVGDETLSAVATSSPKLTLLHMVDTASLANPRAIPGTEAGDSAVTAGTLIEVFSGLPNLEELVLDVGKDVKHSGVALEALNSKCKKLRVLKLG
For B1, the “binding with ASK2 in yeast two-hybrid assay” value [1] was “didn't bind to each other” and the “binding (co-precipitation) with GST-ASK1” value [2] was “co-precipitated with the GST-ASK1 fusion protein”.
